Results from patent US12144869B2, “Anti-ROR1 antibody conjugates, compositions comprising anti ROR1 antibody conjugates, and methods of making and using anti-ROR1 antibody conjugates” (Sutro Biopharma, Inc., priority 2022, dated 2024).

What was measured:
human ROR1-Fz = molecular target: T1, human ROR1-Fz (Homo sapiens, UniProt Q01973); test: Biacore off-rate and kinetic analysis, ROR1-Fz; type: binding; conditions: for Biacore human ROR1-Fz ka / Biacore human ROR1-Fz kd: Table 11, SP34 light chain
T1 construct: Frizzled (Fz, residues 165-305); His6 (C); purchased Acro Biosystems; host or cells: HEK293
T1 sequence (Q01973 165-305): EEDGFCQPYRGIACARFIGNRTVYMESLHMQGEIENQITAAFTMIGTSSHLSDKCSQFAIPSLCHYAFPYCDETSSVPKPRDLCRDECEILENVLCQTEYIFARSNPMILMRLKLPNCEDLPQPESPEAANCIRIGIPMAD
Procedure: Anti-Fc polyclonal antibodies were immobilized onto a CMS chip (GE Life Sciences) using amine coupling chemistry (from Amine Coupling Kit, GE Life Sciences). The immobilization steps were carried out at a flow rate of 25 μL/min in 1×HBS-EP+buffer (GE Life Sciences; 10× Stock diluted before use). The sensor surfaces were activated for 7 min with a mixture of NHS (0.05 M) and EDC (0.2 M). The Anti-Fc antibodies were injected over all 4 flow cells at a concentration of 25 ug/ml in 10 mM sodium acetate, pH 4.5, for 7 min. Ethanolamine (1 M, pH 8.5) was injected for 7 min to block any remaining activated groups. An average of 12,000 response units (RU) of capture antibody was immobilized on each flow cell.
Off-rate and kinetic binding experiments were performed at 25° C. using 1×HBS-EP+buffer. Test and control antibodies were injected over the anti-Fc surface at concentrations of 5-10 μg/mL for 12 seconds at a flow rate of 10 μL/min on flow cells 2, 3 and 4, followed by a buffer wash for 30 seconds at the same flow rate. Kinetic characterization of antibody samples was carried out with a range of antigen concentrations from 1-100 nM and 1 injection of 0 nM antigen (for example, 100, 50, 25, 6.25, 1.56 and 0 nM). After capturing ligand (antibody) on the anti-Fc surface, the analyte (hROR1, Fz or Kr domains, Acro Biosystems, Delaware) was bound for 180 seconds, followed by a 600 second dissociation phase at a flow rate of 50 μL/min. Between each ligand capture and analyte binding cycle, regeneration was carried out using 2 injections of 10 mM Glycine pH 2.0 for 30 seconds at 30 μL/min, followed by a 30 second buffer wash step.
The data was fit with the Biacore T200 Evaluation software, using a 1-1 Langmuir binding model. KD (affinity, nM) was determined as a ratio of the kinetic rate constants calculated from the fits of the association and dissociation phases.
For anti-CD3-LC-containing IgGs that had detectable ROR1-binding in ELISA (1944-A07 and 1987-C05 variants), those antibodies were further tested for binding by surface plasmon resonance (SPR). Binding kinetics were assessed to the ROR1-frizzled domain (hROR1-Fz) or the ROR1-extracellular domain (hROR1) for 1944-A07 and 1987-C05 variants, respectively. Briefly, anti-ROR1 antibodies were captured via anti-human Fc polyclonal antibodies immobilized to a CM5 chip, and ROR1 recombinant proteins were flowed across the surface to assess binding kinetics. hROR1 or hROR1-Fz domain (Acro Biosystems, Delaware) binding was tested at 100, 50, 25, 6.25, 1.5625 nM. The data was fit with the Biacore™ T200 Evaluation software, using a 1-1 Langmuir binding model. KD (affinity, nM) was determined as a ratio of the kinetic rate constants calculated from the fits of the association and dissociation phases.

[1] = Differential scanning fluorimetry (protein thermal shift; TM1/TM2); type: physicochemical; conditions: Table 11; melting temperature of the Fab domain
Procedure: A protein thermal shift assay was carried out by mixing the protein to be assayed with an environmentally sensitive dye (SYPRO Orange, Life Technologies Cat #S-6650) in a phosphate buffered solution (PBS), and monitoring the fluorescence of the mixture in real time as it underwent controlled thermal denaturation. Protein solutions between 0.2-2 mg/mL were mixed at a 1-1 volumetric ratio with a 1-500 PBS-diluted solution of SYPRO Orange (SYPRO Orange stock dye is 5000× in DMSO). 10 μL aliquots of the protein-dye mixture were dispensed in quadruplicate in a 384-well microplate (Bio-Rad Cat #MSP-3852), and the plate was sealed with an optically clear sealing film (Bio-Rad Cat #MSB-1001) and placed in a 384-well plate real-time thermocycler (Bio-Rad CFX384 Real Time System). The protein-dye mixture was heated from […], at increments of 0.1° C. per cycle (˜1.5° C. per minute), allowing 3 seconds of equilibration at each temperature before taking a fluorescence measurement. At the end of the experiment, the transition melting temperatures (TM1 and TM2) were determined using the Bio-Rad CFX manager software. TM1 represents the melting temperature of the Fc domain. TM2 represents the melting temperature of the Fab domain.
For the thermal stability of an antibody, the first melting peak (Tm1) coincides with the unfolding of the CH2 domain (FC stability), while the second melting peak (Tm2) occurs upon unfolding of the Fab domain.

[2] = Table 7, sample ROR1 Fz, 1944-A07 HC with different LCs

B1: 1944-A07 HC w/hUCHT1 LC3: HC of lead antibody 1944-A07 co-expressed with the LC of anti-CD3 antibody "hUCHT1-LC3" (antibody, V domains shown)
VH: EVQLVESGGGLVQPGGSLRLSCAASGFNITGYYIHWVRQAPGKGLEWVGYISPNSGSTYYADSVKGRFTISADTSKNTAYLQMNSLRAEDTAVYYCARDSRRYVRPFDYWGQGTLVTVSS
VL: DIQMTQSPSTLSASVGDRVTITCRASQDIRNYLNWYQQKPGKAPKLLIYYTSRLHSGVPSRFSGSGSGTEYTLTISSLQPDDFATYYCQQGNTLPWTFGGGTKVEIK
ka1 (human ROR1-Fz; [2]): 1.85e+06 M⁻¹ s⁻¹ | kd1 (human ROR1-Fz; [2]): 0.119 s⁻¹ | KD (SPR binding kinetics) (human ROR1-Fz; hROR1-Fz, 1944-A07 variants): binding was not detected

B2: SRP2196-A04 (antibody, V domains shown)
VH: EVQLVESGGGLVQPGGSLRLSCAASGFNISPYYIHWVRQAPGKGLEWVGQIYPISGHTYQADSVKGRFTISADTSKNTAYLQMNSLRAEDTAVYYCARESRRYVGPFGYWGQGTLVTVSS
VL: QAVVTQESALTTSPGETVTLTCRSSTGAVTTSNYANWVQEKPDHLFTGLIGGTNKRAPGVPARFSGSLIGDKAALTITGAQTEDEAIYFCALWYSNLWVFGGGTKLTVL
Biacore human ROR1-Fz ka (human ROR1-Fz): 139000 M⁻¹ s⁻¹ | Biacore human ROR1-Fz kd (human ROR1-Fz): 0.000343 s⁻¹

B3: SRP2196-A05 (antibody, V domains shown)
VH: EVQLVESGGGLVQPGGSLRLSCAASGFNITNYYIHWVRQAPGKGLEWVGYISPNSGATYQADSVKGRFTISADTSKNTAYLQMNSLRAEDTAVYYCARDSRRYVRSWDYWGQGTLVTVSS
VL: QAVVTQESALTTSPGETVTLTCRSSTGAVTTSNYANWVQEKPDHLFTGLIGGTNKRAPGVPARFSGSLIGDKAALTITGAQTEDEAIYFCALWYSNLWVFGGGTKLTVL
TM2 (° C.) [1]: 71 °C | Biacore human ROR1-Fz ka (human ROR1-Fz): 175000 M⁻¹ s⁻¹ | Biacore human ROR1-Fz kd (human ROR1-Fz): 0.000682 s⁻¹

B4: SRP2196-A08 (antibody, V domains shown)
VH: EVQLVESGGGLVQPGGSLRLSCAASGFNITGYYIHWVRQAPGKGLEWVGYISPNSGSTYKADSVKGRFTISADTSRNTAYLQMNSLRAEDTAVYYCARDSRRYVRSWDYWGQGTLVTVSS
VL: QAVVTQESALTTSPGETVTLTCRSSTGAVTTSNYANWVQEKPDHLFTGLIGGTNKRAPGVPARFSGSLIGDKAALTITGAQTEDEAIYFCALWYSNLWVFGGGTKLTVL
TM2 (° C.) [1]: 69 °C | Biacore human ROR1-Fz ka (human ROR1-Fz): 183000 M⁻¹ s⁻¹ | Biacore human ROR1-Fz kd (human ROR1-Fz): 0.00078 s⁻¹

B5: 1944-A07 HC w/hOKT3 LC1: HC of lead antibody 1944-A07 co-expressed with the LC of anti-CD3 antibody "hOKT3-LC1" (antibody, V domains shown)
VH: EVQLVESGGGLVQPGGSLRLSCAASGFNITGYYIHWVRQAPGKGLEWVGYISPNSGSTYYADSVKGRFTISADTSKNTAYLQMNSLRAEDTAVYYCARDSRRYVRPFDYWGQGTLVTVSS
VL: DIQMTQSPSSLSASVGDRVTITCSASSSVSYMNWYQQKPGKAPKRLIYDTSKLASGVPSRFSGSGSGTEYTLTISSLQPEDFATYYCQQWSSNPFTFGQGTKLEIK
KD (human ROR1-Fz; [2]): Not detected

B6: SRP1944-A07 w SP34 LC3: "initial antibody leads constructed with an SP34 light chain" (antibody, V domains shown)
VH: EVQLVESGGGLVQPGGSLRLSCAASGFNITGYYIHWVRQAPGKGLEWVGYISPNSGSTYYADSVKGRFTISADTSKNTAYLQMNSLRAEDTAVYYCARDSRRYVRPFDYWGQGTLVTVSS
VL: QTVVTQEPSLTVSPGGTVTLTCGSSTGAVTSGYYPNWFQQKPGQAPRGLIGGTKFLAPGTPARFSGSLLGGKAALTLSGVQPEDEAEYYCALWYSNRWVFGGGTQLTVTG
Biacore human ROR1-Fz ka (human ROR1-Fz): 597000 M⁻¹ s⁻¹ | Biacore human ROR1-Fz kd (human ROR1-Fz): 0.0085 s⁻¹

B7: SRP2196-B05 (antibody, V domains shown)
VH: EVQLVESGGGLVQPGGSLRLSCAASGFNITGYYIHWVRQAPGKGLEWVGQISPNSGATYHADSVKGRFTISADTSKNTAYLQMNSLRAEDTAVYYCARDSRRYVRGWDYWGQGTLVTVSS
VL: QAVVTQESALTTSPGETVTLTCRSSTGAVTTSNYANWVQEKPDHLFTGLIGGTNKRAPGVPARFSGSLIGDKAALTITGAQTEDEAIYFCALWYSNLWVFGGGTKLTVL
TM2 (° C.) [1]: 73 °C

B8: 1944-A07 HC w/hSP34 LC3: HC of lead antibody 1944-A07 co-expressed with the LC of anti-CD3 antibody "hSP34-LC3" (antibody, V domains shown)
VH: EVQLVESGGGLVQPGGSLRLSCAASGFNITGYYIHWVRQAPGKGLEWVGYISPNSGSTYYADSVKGRFTISADTSKNTAYLQMNSLRAEDTAVYYCARDSRRYVRPFDYWGQGTLVTVSS
VL: QTVVTQEPSLTVSPGGTVTLTCGSSTGAVTSGYYPNWFQQKPGQAPRGLIGGTKFLAPGTPARFSGSLLGGKAALTLSGVQPEDEAEYYCALWYSNRWVFGGGTQLTVTG
ka1 (human ROR1-Fz; [2]): 360000 M⁻¹ s⁻¹ | kd1 (human ROR1-Fz; [2]): 0.00228 s⁻¹

B9: SRP2196-A06 (antibody, V domains shown)
VH: EVQLVESGGGLVQPGGSLRLSCAASGFNITGYYIHWVRQAPGKGLEWVGQISPNSGSTHQADSVKGRFTISADTSKNTAYLQMNSLRAGDTAVYYCARDSRRYVRGWDYWGQGTLVTVSS
VL: QAVVTQESALTTSPGETVTLTCRSSTGAVTTSNYANWVQEKPDHLFTGLIGGTNKRAPGVPARFSGSLIGDKAALTITGAQTEDEAIYFCALWYSNLWVFGGGTKLTVL
TM2 (° C.) [1]: 70 °C | Biacore human ROR1-Fz ka (human ROR1-Fz): 180000 M⁻¹ s⁻¹ | Biacore human ROR1-Fz kd (human ROR1-Fz): 0.00069 s⁻¹

B10: SRP2196-A02 (antibody, V domains shown)
VH: EVQLVESGGGLVQPGGSLRLSCAASGFNITGYYIHWVRQAPGKGLEWVGQISPNSGATHDADSVKGRFTISADTSKNTAYLQMNSLRAEDTAVYYCARDSRRYVRGWDYWGQGTLVTVSS
VL: QAVVTQESALTTSPGETVTLTCRSSTGAVTTSNYANWVQEKPDHLFTGLIGGTNKRAPGVPARFSGSLIGDKAALTITGAQTEDEAIYFCALWYSNLWVFGGGTKLTVL
TM2 (° C.) [1]: 71 °C

B11: SRP2196-A10 (antibody, V domains shown)
VH: EVQLVESGGGLVQPGGSLRLSCAASGFNITGYYIHWVRQAPGKGLEWVGYISPNSGATHYADSVKGRFTISADISKNTAYLQMNSLRAEDTAVHYCARDSRRYVRSWDYWGQGTLVTVSS
VL: QAVVTQESALTTSPGETVTLTCRSSTGAVTTSNYANWVQEKPDHLFTGLIGGTNKRAPGVPARFSGSLIGDKAALTITGAQTEDEAIYFCALWYSNLWVFGGGTKLTVL
TM2 (° C.) [1]: 68 °C | Biacore human ROR1-Fz ka (human ROR1-Fz): 172000 M⁻¹ s⁻¹ | Biacore human ROR1-Fz kd (human ROR1-Fz): 0.000479 s⁻¹

B12: SRP2196-A01 (antibody, V domains shown)
VH: EVQLVESGGGLVQPGGSLRLSCAASGFNITGYYIHWVRQAPGKGLEWVGQISPNSGYTYYADSVKGRFTISADTSKNTAYLQMNSLRAEDTAVYYCARDSRRYVRGWDYWGQGTLVTVSS
VL: QAVVTQESALTTSPGETVTLTCRSSTGAVTTSNYANWVQEKPDHLFTGLIGGTNKRAPGVPARFSGSLIGDKAALTITGAQTEDEAIYFCALWYSNLWVFGGGTKLTVL
TM2 (° C.) [1]: 74 °C
